Results on one molecule are retold here after PMC3814767, “Target Specificity of the E3 Ligase LUBAC for Ubiquitin and NEMO Relies on Different Minimal Requirements* ^([image sbox.jpg])” (The Journal of Biological Chemistry, 2013).

In the test the target is T1, N-terminal TAMRA-labeled ubiquitin (wild type) (UniProt P0CG48 1-76, TAMRA (5-carboxytetramethylrhodamine) label on the N-terminus).
T1 construct: also called ^TAMRAubiquitin; ^TAMRAUb; source: chemically synthesized (according to El Oualid et al.), purified over Resource S and gel filtration (Superdex 75)
The test can be described thus: fluorescence polarisation; TAMRA-ubiquitin 1 nM, HOIP^LDD in 1:1 serial dilutions, three repeats; 20 mM Hepes pH 7.5, 150 mM NaCl, 5 mM βME, 1 g/liter chicken ovalbumin; fit to a 1:1 non-linear binding model. The conditions noted are these: both partners purified. On the technique in general: In fluorescence polarisation assays a small probe gives low polarisation when free and higher when bound to something large.

B1: HOIP linear ubiquitin chain determining domain (LDD) (domain or fragment, UniProt Q96EP0 910-1072, looked up)
chain: KCPEPNCRVKKSLHGHHPRDCLFYLRDWTALRLQKLLQDNNVMFNTEPPAGARAVPGGGCRVIEQKEVPNGLRDEACGKETPAGYAGLCQAHYKEYLVSLINAHSLDPATLYEVEELETATERYLHVRPQPLAGEDPPAYQARLLQKLTEEVPLGQSIPRRRK
notes: HOIP (RNF31), the C-terminal linear ubiquitin chain determining domain (LDD); also called HOIP^LDD; HOIP LDD domain
For orientation: Kd means a measure of binding affinity in units of concentration. Low readings indicate tighter binding, high ones weaker binding. B1 displayed a Kd of 160 ± 40 µM.
